Reference: the supplement of paper PMC10065799, “High-throughput profiling of sequence recognition by tyrosine kinases and SH2 domains using bacterial peptide display” (eLife, 2023)

How the values were obtained:
AncSZ = experiment: phosphorylation enrichment, bacterial display (enrichment ratio); higher = better substrate or ligand; peptides without Tyr show the background
EPHB1 = EPHB1 (UniProt P54762); experiment: as above
EPHB2 = EPHB2 (UniProt P29323); experiment: as above
FGFR1 = FGFR1 (UniProt P11362); experiment: as above
Chain of FGFR1 (P11362 whole entry, looked up): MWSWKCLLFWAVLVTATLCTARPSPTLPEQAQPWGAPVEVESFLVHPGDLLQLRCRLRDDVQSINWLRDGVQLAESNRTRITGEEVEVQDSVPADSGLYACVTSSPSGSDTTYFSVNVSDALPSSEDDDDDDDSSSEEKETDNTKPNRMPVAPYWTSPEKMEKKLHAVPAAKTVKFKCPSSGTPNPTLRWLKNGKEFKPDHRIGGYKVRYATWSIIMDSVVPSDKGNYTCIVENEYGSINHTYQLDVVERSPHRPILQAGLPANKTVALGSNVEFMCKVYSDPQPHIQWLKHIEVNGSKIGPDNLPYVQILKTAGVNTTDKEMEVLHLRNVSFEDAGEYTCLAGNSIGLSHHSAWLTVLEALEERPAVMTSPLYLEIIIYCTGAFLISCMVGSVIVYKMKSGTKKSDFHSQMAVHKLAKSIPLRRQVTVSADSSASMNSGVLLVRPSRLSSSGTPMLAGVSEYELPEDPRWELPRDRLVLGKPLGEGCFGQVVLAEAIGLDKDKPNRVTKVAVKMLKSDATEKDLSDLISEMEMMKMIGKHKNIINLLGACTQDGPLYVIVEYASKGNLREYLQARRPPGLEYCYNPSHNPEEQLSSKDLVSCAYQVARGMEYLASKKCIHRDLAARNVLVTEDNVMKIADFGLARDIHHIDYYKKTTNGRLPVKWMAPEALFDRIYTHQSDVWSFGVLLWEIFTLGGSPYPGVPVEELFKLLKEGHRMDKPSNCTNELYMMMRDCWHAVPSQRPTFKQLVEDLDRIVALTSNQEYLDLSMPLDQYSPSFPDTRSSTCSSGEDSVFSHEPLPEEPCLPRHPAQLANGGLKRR

FGFR3 = FGFR3 (UniProt P22607); experiment: as above
Chain of FGFR3 (P22607 whole entry, looked up): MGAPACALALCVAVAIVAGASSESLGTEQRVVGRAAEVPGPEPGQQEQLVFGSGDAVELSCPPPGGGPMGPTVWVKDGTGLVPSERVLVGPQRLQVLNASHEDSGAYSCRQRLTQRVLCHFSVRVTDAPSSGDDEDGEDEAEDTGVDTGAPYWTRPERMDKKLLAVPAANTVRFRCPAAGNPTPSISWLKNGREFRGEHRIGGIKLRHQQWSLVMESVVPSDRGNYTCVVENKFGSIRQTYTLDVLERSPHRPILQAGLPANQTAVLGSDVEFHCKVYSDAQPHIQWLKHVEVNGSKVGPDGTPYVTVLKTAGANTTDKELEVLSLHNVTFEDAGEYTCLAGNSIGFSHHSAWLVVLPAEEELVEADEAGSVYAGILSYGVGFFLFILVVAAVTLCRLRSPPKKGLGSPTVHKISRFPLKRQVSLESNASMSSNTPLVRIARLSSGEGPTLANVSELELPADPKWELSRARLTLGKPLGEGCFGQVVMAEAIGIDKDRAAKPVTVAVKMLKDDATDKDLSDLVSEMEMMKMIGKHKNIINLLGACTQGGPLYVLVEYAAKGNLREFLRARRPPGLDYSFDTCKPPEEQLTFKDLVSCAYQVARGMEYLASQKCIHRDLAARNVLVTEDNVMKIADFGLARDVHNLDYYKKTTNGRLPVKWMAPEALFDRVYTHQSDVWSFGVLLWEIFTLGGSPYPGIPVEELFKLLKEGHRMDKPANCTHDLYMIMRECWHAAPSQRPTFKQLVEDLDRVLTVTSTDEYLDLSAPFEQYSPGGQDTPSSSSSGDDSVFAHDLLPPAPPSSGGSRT

Fer (mouse) = experiment: as above
Fes = Fes (UniProt P07332); experiment: as above
Fyn = Fyn (UniProt P06241); experiment: as above
Hck = Hck (UniProt P08631); experiment: as above
Jak2 = Jak2 (UniProt O60674); experiment: as above
Chain of Jak2 (O60674 whole entry, looked up): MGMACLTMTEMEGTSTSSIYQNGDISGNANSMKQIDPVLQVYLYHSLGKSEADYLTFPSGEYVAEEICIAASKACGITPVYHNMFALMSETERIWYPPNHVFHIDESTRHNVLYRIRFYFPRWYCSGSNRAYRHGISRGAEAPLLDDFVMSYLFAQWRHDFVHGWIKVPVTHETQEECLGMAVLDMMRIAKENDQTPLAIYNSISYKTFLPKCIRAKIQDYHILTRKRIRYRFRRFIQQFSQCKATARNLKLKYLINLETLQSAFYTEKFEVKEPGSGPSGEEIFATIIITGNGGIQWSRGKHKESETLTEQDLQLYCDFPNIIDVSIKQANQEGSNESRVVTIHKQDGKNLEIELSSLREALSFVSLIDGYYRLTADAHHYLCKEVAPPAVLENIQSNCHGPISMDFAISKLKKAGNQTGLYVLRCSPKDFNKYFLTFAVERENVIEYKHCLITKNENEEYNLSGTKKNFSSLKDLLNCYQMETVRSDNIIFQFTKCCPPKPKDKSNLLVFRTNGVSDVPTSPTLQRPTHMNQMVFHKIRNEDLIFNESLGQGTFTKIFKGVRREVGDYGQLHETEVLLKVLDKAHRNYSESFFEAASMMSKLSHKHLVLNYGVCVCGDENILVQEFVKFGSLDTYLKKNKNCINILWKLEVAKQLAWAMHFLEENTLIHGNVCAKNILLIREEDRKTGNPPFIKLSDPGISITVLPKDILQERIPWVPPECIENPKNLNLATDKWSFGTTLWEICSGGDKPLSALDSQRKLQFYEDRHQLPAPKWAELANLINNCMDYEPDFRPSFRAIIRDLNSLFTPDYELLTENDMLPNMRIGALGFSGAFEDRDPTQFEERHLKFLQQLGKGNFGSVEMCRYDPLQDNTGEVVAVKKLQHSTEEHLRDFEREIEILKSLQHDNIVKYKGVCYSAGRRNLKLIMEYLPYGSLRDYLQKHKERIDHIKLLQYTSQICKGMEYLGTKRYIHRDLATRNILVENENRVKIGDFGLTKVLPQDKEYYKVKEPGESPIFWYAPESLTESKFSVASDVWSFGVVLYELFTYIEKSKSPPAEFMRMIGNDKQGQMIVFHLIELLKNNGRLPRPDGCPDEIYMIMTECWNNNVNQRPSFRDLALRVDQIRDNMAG

MERTK = MERTK (UniProt Q12866); experiment: as above
Chain of MERTK (Q12866 whole entry, looked up): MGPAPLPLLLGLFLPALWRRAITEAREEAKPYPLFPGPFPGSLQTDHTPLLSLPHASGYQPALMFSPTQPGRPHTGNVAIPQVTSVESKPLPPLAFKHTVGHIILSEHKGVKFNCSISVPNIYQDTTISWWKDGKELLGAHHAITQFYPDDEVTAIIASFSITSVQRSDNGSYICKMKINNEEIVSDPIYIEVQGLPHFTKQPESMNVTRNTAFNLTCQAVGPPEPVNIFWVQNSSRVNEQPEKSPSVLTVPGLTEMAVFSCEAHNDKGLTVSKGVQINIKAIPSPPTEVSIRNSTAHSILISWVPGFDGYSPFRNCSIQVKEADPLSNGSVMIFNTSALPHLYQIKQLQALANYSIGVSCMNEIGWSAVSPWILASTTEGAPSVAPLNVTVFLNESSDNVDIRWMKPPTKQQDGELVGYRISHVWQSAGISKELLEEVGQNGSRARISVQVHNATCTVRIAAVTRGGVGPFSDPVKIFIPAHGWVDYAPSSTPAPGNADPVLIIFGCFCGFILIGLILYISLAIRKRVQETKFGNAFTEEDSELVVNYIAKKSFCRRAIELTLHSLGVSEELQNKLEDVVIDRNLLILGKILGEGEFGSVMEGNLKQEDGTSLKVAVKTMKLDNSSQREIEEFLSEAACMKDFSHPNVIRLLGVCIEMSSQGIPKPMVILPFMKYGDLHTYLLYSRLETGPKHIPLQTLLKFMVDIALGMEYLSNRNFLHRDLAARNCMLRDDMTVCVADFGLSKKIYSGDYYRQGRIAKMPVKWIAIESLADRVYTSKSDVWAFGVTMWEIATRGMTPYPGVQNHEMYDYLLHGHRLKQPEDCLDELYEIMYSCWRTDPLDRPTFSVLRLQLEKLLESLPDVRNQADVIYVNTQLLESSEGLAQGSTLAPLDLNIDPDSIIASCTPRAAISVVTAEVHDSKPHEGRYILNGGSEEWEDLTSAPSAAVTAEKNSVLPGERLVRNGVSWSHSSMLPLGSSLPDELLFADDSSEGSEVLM

c-Abl (mouse) = experiment: as above
c-Src = experiment: as above
Grb2 SH2 = Grb2 SH2 (UniProt P62993); experiment: SH2 binding enrichment of the phosphorylated peptide, bacterial display (enrichment ratio); higher = better substrate or ligand; peptides without Tyr show the background
Chain of Grb2 SH2 (P62993 whole entry, looked up): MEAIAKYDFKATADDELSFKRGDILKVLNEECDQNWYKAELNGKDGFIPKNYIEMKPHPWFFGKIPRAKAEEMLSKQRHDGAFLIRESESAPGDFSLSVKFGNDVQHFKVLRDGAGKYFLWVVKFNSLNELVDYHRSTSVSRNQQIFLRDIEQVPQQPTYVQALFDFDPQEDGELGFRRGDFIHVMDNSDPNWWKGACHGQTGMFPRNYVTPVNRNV

SHP2-C SH2 = experiment: as above
c-Src SH2 = experiment: as above
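For SH2 binding enrichment of the phosphorylated peptide, bacterial display in this document: peptide library displayed on the E. coli surface as eCPX fusions, selected cells deep-sequenced, score is each peptide's frequency after selection divided by its frequency in the input.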
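For phosphorylation enrichment, bacterial display in this document: 11-residue human phosphosite peptides and single-mutation variants displayed on the E. coli surface, counted by deep sequencing, each peptide's frequency after selection divided by its frequency in the unselected input library; frequency after pTyr selection over input frequency; kinase dosed for 20-30% of maximal phosphorylation in three min.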

Chain of EPHB1 (P54762 whole entry, looked up): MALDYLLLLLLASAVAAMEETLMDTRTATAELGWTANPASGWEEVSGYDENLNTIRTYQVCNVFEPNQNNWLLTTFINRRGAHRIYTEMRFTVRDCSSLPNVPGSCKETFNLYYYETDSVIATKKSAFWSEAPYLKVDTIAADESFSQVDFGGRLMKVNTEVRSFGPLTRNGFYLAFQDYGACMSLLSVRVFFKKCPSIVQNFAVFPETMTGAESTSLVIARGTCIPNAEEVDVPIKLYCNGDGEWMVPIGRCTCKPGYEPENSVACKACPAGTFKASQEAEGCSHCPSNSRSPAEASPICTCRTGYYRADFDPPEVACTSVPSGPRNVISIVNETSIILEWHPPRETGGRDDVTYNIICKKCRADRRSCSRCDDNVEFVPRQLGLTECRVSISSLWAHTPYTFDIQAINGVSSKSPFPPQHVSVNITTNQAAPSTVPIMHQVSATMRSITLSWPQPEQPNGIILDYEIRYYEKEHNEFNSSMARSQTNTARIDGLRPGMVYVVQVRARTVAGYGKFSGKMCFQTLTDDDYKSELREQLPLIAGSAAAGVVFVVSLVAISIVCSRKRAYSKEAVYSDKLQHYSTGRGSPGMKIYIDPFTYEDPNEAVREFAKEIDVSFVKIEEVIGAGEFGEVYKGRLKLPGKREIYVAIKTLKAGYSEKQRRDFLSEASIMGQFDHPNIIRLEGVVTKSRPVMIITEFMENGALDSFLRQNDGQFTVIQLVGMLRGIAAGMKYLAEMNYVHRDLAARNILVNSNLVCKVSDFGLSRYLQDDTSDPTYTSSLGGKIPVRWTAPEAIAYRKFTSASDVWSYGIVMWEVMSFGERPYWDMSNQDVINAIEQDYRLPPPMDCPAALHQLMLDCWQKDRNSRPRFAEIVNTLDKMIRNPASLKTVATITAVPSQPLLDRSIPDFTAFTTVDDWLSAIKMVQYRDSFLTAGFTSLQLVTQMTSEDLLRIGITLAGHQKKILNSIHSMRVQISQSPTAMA

Sequence	phosphorylation enrichment (AncSZ)	phosphorylation enrichment (EPHB1)	phosphorylation enrichment (EPHB2)	phosphorylation enrichment (FGFR1)	phosphorylation enrichment (FGFR3)	phosphorylation enrichment (Fer (mouse))	phosphorylation enrichment (Fes)	phosphorylation enrichment (Fyn)	phosphorylation enrichment (Hck)	phosphorylation enrichment (Jak2)	phosphorylation enrichment (MERTK)	phosphorylation enrichment (c-Abl (mouse))	phosphorylation enrichment (c-Src)	SH2 binding enrichment (Grb2 SH2)	SH2 binding enrichment (SHP2-C SH2)	SH2 binding enrichment (c-Src SH2)
TGNPAYRSFSN [IL4R_Y497_A492T]	0.595	0.328	0.328	0.406	0.457	0.326	0.584	0.369	0.404	0.422	0.326	0.441	0.373	0.791	0.65	0.442
PEADKYRLTFA [FGG_Y300_YF]	1.05	0.887	0.697	0.626	0.78	0.546	1.18	0.553	0.76	1	0.451	0.918	0.568	0.75	0.673	0.475
LLARLYRGQAL [FGFR4_Y390_G388R]	0.9	0.713	0.477	0.529	0.592	0.507	0.887	0.795	0.519	0.823	0.442	0.937	0.489	0.827	0.512	0.461
DISEPYKVYRI [IRF8_Y107]	0.911	0.537	0.517	0.481	0.549	0.497	0.88	0.445	1.34	0.78	0.487	0.62	0.622	0.901	0.795	0.479
VTSLKYSTSPF [BRIP1_Y916_YF]	0.605	0.469	0.507	0.435	0.689	0.408	0.695	0.433	0.464	0.711	0.412	0.482	0.403	1.09	0.664	0.455
VKMLEYLGKDV [CASP5_Y74]	1.07	0.422	0.651	0.375	0.453	0.413	0.726	0.454	0.491	0.591	0.504	0.57	0.337	0.662	0.77	0.389
HLVLNYGVCIC [JAK2_Y613_V617I]	1.52	1.39	0.92	0.607	1.46	0.67	2.09	0.551	0.484	1.68	0.535	1.52	0.576	0.985	0.597	0.614
RTESQYQENRG [LRCH3_Y354_R350T]	0.792	0.675	0.414	0.499	0.591	0.539	1	0.578	0.653	1.26	0.688	0.799	0.557	1.19	0.862	0.554
SREALYNEMDP [CACNA1A_Y794]	1.41	0.735	0.693	0.692	0.896	0.731	1.24	0.685	0.834	1.14	2.36	0.852	0.869	0.913	0.489	1.28
PLGKDYRKAEG [MAP1A_Y1909]	0.68	0.512	0.532	0.691	0.787	0.655	0.941	0.72	0.945	0.378	0.589	0.505	0.456	0.884	0.647	0.408
LTQRTYMLENA [GPAA1_Y49_S51L]	0.843	0.783	0.541	0.866	0.929	0.468	1.01	0.858	0.547	0.64	0.536	0.623	0.479	0.988	1.06	0.747
RPQDGYRIVQH [PTPRT_Y1329]	0.797	0.406	0.565	0.557	0.625	0.591	0.708	0.554	0.586	0.534	0.493	0.74	0.649	0.915	0.476	0.508
AELVRYFMEHH [PTPN11_Y80_Q79R_YF]	0.653	0.458	0.526	0.454	0.471	0.427	0.883	0.414	0.46	0.621	0.421	0.493	0.433	0.807	0.632	0.625
CLLHCYFSQIR [MCM3AP_Y873]	0.856	0.497	0.428	0.518	0.867	0.391	1.32	0.327	0.413	1.21	0.401	0.667	0.368	1.93	1.65	1.53
RPLVVYPWTQR [HBB_Y36_L32P]	0.728	1.11	0.695	0.473	0.45	0.358	0.748	0.468	0.407	0.445	0.389	0.509	0.446	0.809	0.718	0.623
RDSQIYAVDFE [MRPS34_Y34_L33I_YF]	1.66	1.08	1.17	0.664	0.656	0.717	1.22	6.32	2.83	1.15	5.64	0.959	7.72	0.88	0.806	0.688
NSRYTCKLEVK [USH2A_Y3747_Y3747C]	1.21	0.678	0.57	0.471	0.885	0.501	1.45	0.407	0.471	1.19	0.387	0.921	0.441	0.808	0.626	0.449

Sequence	phosphorylation enrichment (AncSZ)	phosphorylation enrichment (EPHB1)	phosphorylation enrichment (EPHB2)	phosphorylation enrichment (FGFR1)	phosphorylation enrichment (FGFR3)	phosphorylation enrichment (Fer (mouse))	phosphorylation enrichment (Fes)	phosphorylation enrichment (Fyn)	phosphorylation enrichment (Hck)	phosphorylation enrichment (Jak2)	phosphorylation enrichment (MERTK)	phosphorylation enrichment (c-Abl (mouse))	phosphorylation enrichment (c-Src)	SH2 binding enrichment (Grb2 SH2)	SH2 binding enrichment (SHP2-C SH2)	SH2 binding enrichment (c-Src SH2)
MCDKEYFSVHN [MET_Y1234_Y1230C_YF]	1.31	0.692	0.482	1.78	1.47	0.506	0.866	0.505	0.453	1.11	0.404	0.586	0.576	1.15	1.01	0.696
KNKNRCKNILP [PTPN11_Y279_Y279C]	0.765	0.448	0.503	0.617	0.959	0.488	0.942	0.374	0.481	1.48	0.581	1.37	0.565	0.861	0.598	0.892
YAFQLYDLDRD [CHP2_Y123]	1.24	1.69	0.765	1.89	1.55	1.12	1.17	2.66	1.73	0.969	2.83	0.768	3.19	0.879	2.55	1.58
LIGRRYDDPEV [HSPA9_Y128]	2.69	1.11	1.63	0.643	0.9	0.809	2.17	0.836	0.707	1.35	0.889	1.25	1.27	0.674	0.5	0.822
MGSFNYLGFPR [SPTLC2_Y178_A182P_YF]	0.795	1.88	0.917	0.566	0.534	0.418	0.983	0.44	0.403	1.68	0.518	0.584	0.615	0.862	1.03	0.865
IFRAAYFGVFD [SLC25A4_Y191_YF]	0.985	0.751	0.594	0.499	0.717	0.523	1.25	0.497	0.457	0.891	0.447	0.761	0.438	0.832	0.588	0.546
SGIFQYNIAKF [FOXL2_Y83_I84N_YF]	0.786	0.59	0.541	0.486	0.691	0.48	1.01	0.472	0.494	0.876	0.435	0.739	0.432	1.21	1.11	0.899
KRLDGYVLEGR [IGSF9_Y656]	0.585	0.356	0.417	0.43	0.44	0.323	0.67	0.441	0.447	0.426	0.385	0.496	0.321	0.791	0.518	0.856
KRIETYFSKNF [PLP1_Y50_L46R_YF]	0.703	0.43	0.417	0.516	0.532	0.46	0.874	0.499	0.47	0.723	0.395	0.752	0.467	0.949	0.51	0.559
KGPNVCKKTVN [REV3L_Y1156_Y1156C]	0.644	0.457	0.525	0.529	0.741	0.376	0.863	0.378	0.516	0.944	0.415	1.13	0.54	1.38	1.48	1.19
KLLPEYPGVLS [DHFR2_Y163]	0.685	0.349	0.399	0.379	0.564	0.493	0.657	0.46	0.491	0.598	0.385	0.497	0.458	0.952	0.809	0.574
AQVDTYCRHNY [HLA-DRB1_Y107_A103Q]	0.752	0.536	0.47	0.512	0.679	0.517	0.866	0.549	0.523	0.764	0.447	0.693	0.369	1.05	0.707	0.485
LDAFIYNAAVL [GRIN2A_Y730_D731N]	1.72	1.3	1.57	2.36	1.62	1.95	2.08	4.57	4.05	0.874	0.704	0.972	2.32	0.927	0.761	0.5
DMDATYRPMYS [JUP_Y701]	0.678	0.441	0.525	0.544	0.63	0.463	0.768	0.563	0.677	0.65	0.407	0.656	0.568	0.747	0.521	0.513
FLLTVYSIFSK [SGCE_Y38]	1.15	0.643	0.589	0.496	0.647	0.594	1.05	2.59	2.3	1.1	1.17	0.899	3.17	2.05	1.93	1.38
ISSLRYKLLEE [TRPC6_Y896_E897K]	0.786	0.514	0.476	0.426	0.549	0.38	0.986	0.503	0.47	0.64	0.347	0.603	0.407	0.742	0.65	0.513
